{
  "source": "patent US20100168031",
  "key": {"[1]": {"tested_on": "L(+)-biotinyl-aminohexanoyl-Glu-Glu-Gly-Ala-Pro-Asp-Tyr-Glu-Asn-Leu-Gln-Glu-Leu-Asn (SEQ ID NO:12)"}, "[2]": {"tested_on": "L(+)-biotinyl-aminohexanoyl-Glu-Asp-Glu-Asp-Asp-Tyr-His-Asn-Pro-Gly-Gly-OH (SEQ ID NO:14)"}, "[3]": {"tested_on": "L(+)-biotinyl-aminohexanoyl-Glu-Ser-Ile-Asp-Asp-Tyr-Val-Asn-Val-Pro-Glu-Gly-OH (SEQ ID NO:13)"}, "[4]": {"tested_on": "compounds of SEQ ID NO:12; SEQ ID NO: 13; or SEQ ID NO: 14"}},
  "data": [
    {"substance": "recombinant full-length human Syk (p72syk protein tyrosine kinase)", "values": [
      {"measurement": "phosphorylation of the peptide by the kinase, time resolved fluorescence resonance energy transfer", "setting": "[1]", "result": "are phosphorylated by Syk"},
      {"measurement": "phosphorylation of the peptide by the kinase, time resolved fluorescence resonance energy transfer", "setting": "[2]", "result": "are phosphorylated by Syk"},
      {"measurement": "phosphorylation of the peptide by the kinase, time resolved fluorescence resonance energy transfer", "setting": "[3]", "result": "are phosphorylated by Syk"},
      {"measurement": "fluorescence units (TR-FRET phosphorylation assay, 370 nM peptide, 10 nM Syk, 20 µM ATP)", "setting": "[4]", "result": "20,000 to 30,000 fluorescence units"}
    ]}
  ]
}
